Results taken from patent US20250215412A1 (NOVOZYMES A S, published 2025).
Changes are numbered by the printed parent chain.

Key:
Test in all cases: cell-based or functional assay
[1] = molecular target: T1, Chryseobacterium sp-62563 deamidase S254K (Chryseobacterium sp-62563)
T1 chain: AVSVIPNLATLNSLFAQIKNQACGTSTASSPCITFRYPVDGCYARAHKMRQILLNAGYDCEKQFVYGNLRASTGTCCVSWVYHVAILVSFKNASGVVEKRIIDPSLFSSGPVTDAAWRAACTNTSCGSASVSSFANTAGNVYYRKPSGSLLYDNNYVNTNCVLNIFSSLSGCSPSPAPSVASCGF

[2] = molecular target: T2, Chryseobacterium sp-62563 deamidase P285D (Chryseobacterium sp-62563)
T2 chain: T1 chain with K145S, P176D

[3] = molecular target: T3, Chryseobacterium sp-62563 deamidase L260K (Chryseobacterium sp-62563)
T3 chain: T1 chain with K145S, L151K

[4] = molecular target: T4, Chryseobacterium sp-62563 deamidase V190F (Chryseobacterium sp-62563)
T4 chain: T1 chain with V81F, K145S

[5] = molecular target: T5, Chryseobacterium sp-62563 deamidase L260E (Chryseobacterium sp-62563)
T5 chain: T1 chain with K145S, L151E

[6] = molecular target: T6, Chryseobacterium sp-62563 deamidase Y252S (Chryseobacterium sp-62563)
T6 chain: T1 chain with Y143S, K145S

[7] = molecular target: T7, Chryseobacterium sp-62563 deamidase V190K (Chryseobacterium sp-62563)
T7 chain: T1 chain with V81K, K145S

[8] = molecular target: T8, Chryseobacterium sp-62563 deamidase V190D (Chryseobacterium sp-62563)
T8 chain: T1 chain with V81D, K145S

[9] = molecular target: T9, Chryseobacterium sp-62563 deamidase T268I (Chryseobacterium sp-62563)
T9 chain: T1 chain with K145S, T159I

[10] = molecular target: T10, Chryseobacterium sp-62563 deamidase C169S (Chryseobacterium sp-62563)
T10 chain: T1 chain with C60S, K145S

[11] = molecular target: T11, Chryseobacterium sp-62563 deamidase V111A (Chryseobacterium sp-62563)
T11 chain: T1 chain with V2A, K145S

[12] = molecular target: T12, Chryseobacterium sp-62563 deamidase C230S (Chryseobacterium sp-62563)
T12 chain: T1 chain with C121S, K145S

NanoDSF thermal unfolding temperature [1]: 81.1 ° C.
NanoDSF thermal unfolding temperature [2]: 65.8 ° C.
NanoDSF thermal unfolding temperature [3]: 75.5 ° C.
NanoDSF thermal unfolding temperature [4]: 78.2 ° C.
NanoDSF thermal unfolding temperature [5]: 72.6 ° C.
NanoDSF thermal unfolding temperature [6]: 73.4 ° C.
NanoDSF thermal unfolding temperature [7]: 76.4 ° C.
NanoDSF thermal unfolding temperature [8]: 75.4 ° C.
NanoDSF thermal unfolding temperature [9]: 76.2 ° C.
Leakage activity [10]: 0%
Leakage activity [11]: 0%
Leakage activity [12]: 13%
B1: Chryseobacterium sp-62563 propeptide (first polypeptide, propeptide domain), wildtype (other)
chain: NQDPNLVAKESNETAMKDFGKTVPVGIEKEDGKFKISFMVTAQPYEIKDSKENAAYISMIKTAVENETPIHVFLKANTNEIAKVDKATDDDIRYFKSVFTKEVKEENRK
